Like-named read-outs stand apart in the source and are kept apart here.

This note sets out measurements from US8080523.

Assay [1] deals with T1, Kv1.3 (cloned) (Mus musculus (Mouse)), P16390.
T1 chain: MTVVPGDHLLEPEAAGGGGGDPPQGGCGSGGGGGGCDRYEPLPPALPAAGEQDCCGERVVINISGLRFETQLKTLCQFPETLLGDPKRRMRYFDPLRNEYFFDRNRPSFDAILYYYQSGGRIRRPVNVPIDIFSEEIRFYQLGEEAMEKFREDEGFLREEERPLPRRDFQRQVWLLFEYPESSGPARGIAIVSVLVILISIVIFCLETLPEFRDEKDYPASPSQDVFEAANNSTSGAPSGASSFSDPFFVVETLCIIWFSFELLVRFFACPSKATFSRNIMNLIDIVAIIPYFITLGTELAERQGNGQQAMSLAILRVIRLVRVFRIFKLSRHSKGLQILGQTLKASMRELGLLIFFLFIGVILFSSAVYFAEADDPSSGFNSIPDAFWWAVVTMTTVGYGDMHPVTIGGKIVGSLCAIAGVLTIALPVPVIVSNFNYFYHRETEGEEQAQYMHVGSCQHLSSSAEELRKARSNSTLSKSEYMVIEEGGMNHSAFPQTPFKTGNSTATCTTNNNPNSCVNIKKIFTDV
The assay is described as follows: patch-clamp, block of channel current.

For assay [2], the target named is T2, Kv1.1 (Mus musculus (Mouse)), P16388.
T2 chain: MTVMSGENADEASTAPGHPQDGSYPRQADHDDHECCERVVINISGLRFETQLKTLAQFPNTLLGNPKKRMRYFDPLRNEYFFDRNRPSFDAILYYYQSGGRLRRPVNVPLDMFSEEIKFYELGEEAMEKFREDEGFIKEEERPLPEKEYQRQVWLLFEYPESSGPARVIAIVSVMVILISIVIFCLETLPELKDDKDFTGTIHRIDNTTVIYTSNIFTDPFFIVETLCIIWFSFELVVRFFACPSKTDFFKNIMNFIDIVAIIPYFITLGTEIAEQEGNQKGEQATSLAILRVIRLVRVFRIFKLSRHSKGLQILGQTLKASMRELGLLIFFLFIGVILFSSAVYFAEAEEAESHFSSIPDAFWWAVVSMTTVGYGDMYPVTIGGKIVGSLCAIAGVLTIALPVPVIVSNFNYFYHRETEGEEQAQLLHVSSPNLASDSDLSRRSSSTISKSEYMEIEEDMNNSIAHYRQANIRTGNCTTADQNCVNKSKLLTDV
The assay is described as follows: patch-clamp, block of channel current.

Assay [3] has the same target. The assay is described as follows: patch-clamp, ratio of Kd values; reference margatoxin on Kv1.3.
The target of assay [4] is T1, Kv1.3 (cloned) (Mus musculus (Mouse)), ….

As to TIINVKCTSPKQCLPPCKAQFGQSAGAKCMNGKCKCYPH (modifications not checked) [Margatoxin, P40755 1-39], the results for the dissociation constant (Kd) in assay [1] and in assay [2] were 0.11 nM and 10 nM, respectively. Besides, the fold selectivity for Kv1.3 over this channel in assay [3] is 9 fold.

RSCIDTIPKSRCTAFQCKHSMKYRLSFCRKTCGTC (modifications not checked) [ShK toxin] had a Kd in assay [4] of 0.01 nM.
